Consider four substances from US20200332017A1.

pEC50, pKd: −log10 of the molar value. “And” between values parts separate entries of the source, which are not always exact repeats. Identical values can stand only once. Like-named read-outs stand apart in the source and are kept apart here.

For assay [1], the target named is human CD40-Fc protein (amino acid residue 21-193 of SEQ ID NO: 67 linked to N-terminus of amino acid residue 99-330 of SEQ ID NO.: 24) (human). Description: capture ELISA, biotin human CD40-Fc; mAb at 3.2 ng/mL. (An ELISA detects its analyte on a solid surface through an enzyme-linked reagent.)
The target is the same in assay [2]. Nature of the assay: capture ELISA, biotin human CD40-Fc; mAb at 400 ng/mL.
Assay [3] shares this target. Nature of the assay: capture ELISA, biotin human CD40-Fc; mAb at 16 ng/mL.
For assay [4] the target is unchanged. Nature of the assay: capture ELISA, biotin human CD40-Fc; mAb at 10000 ng/mL.
Assay [5] shares this target. Description: capture ELISA, biotin human CD40-Fc; mAb at 0 ng/mL (blank).
For assay [6] the target is unchanged. Nature of the assay: capture ELISA, biotin human CD40-Fc; mAb at 0.64 ng/mL.
Assay [7] shares this target. Description: capture ELISA, biotin human CD40-Fc; mAb at 80 ng/mL.
Assay [8] has the same target. Nature of the assay: capture ELISA, biotin human CD40-Fc; mAb at 2000 ng/mL.
The target in assay [9] is full length human CD40 (uniprot # P25942-1) on the membrane of 293T-CD40 cells (human) (UniProt P25942). Description: flow cytometry on 293T-CD40 cells, PE-labeled secondary antibody, MFI. For orientation: In flow cytometry, cells or beads pass a laser one at a time.
Assay [10] deals with human CD40-Fc protein (amino acid residue 21-193 of SEQ ID NO: 67 linked to N-terminus of amino acid residue 99-330 of SEQ ID NO.: 24) (human). Nature of the assay: capture ELISA; antibody captured, biotin-labeled human CD40-Fc in solution.
Assay [11] deals with full length human CD40 (uniprot # P25942-1) on the membrane of 293T-CD40 cells (human) (UniProt P25942). Nature of the assay: cell-based or functional assay.
Assay [12] shares this target. Description: flow cytometry on 293T-CD40 cells, PE-labeled secondary antibody, MFI. The source holds these as a separate data set.
The target in assay [13] is human CD40-Fc protein (amino acid residue 21-193 of SEQ ID NO: 67 linked to N-terminus of amino acid residue 99-330 of SEQ ID NO.: 24) (human). Description: capture ELISA (antibody captured on coated goat anti-human IgG F(ab')2, biotin-labeled human CD40-Fc in solution, streptavidin-HRP, OD(450-630)).
Assay [14] concerns the target full length human CD40 (uniprot # P25942-1) on the membrane of 293T-CD40 cells (human) (UniProt P25942). Nature of the assay: flow cytometry on 293T-CD40 cells.
Assay [15] concerns the target Human CD40-his protein (Acro biosystems, Cat # CD0-H5228) (human) (UniProt P25942). Description: SPR, Biacore; antibody captured, human CD40-his flowed. For orientation: In SPR one partner is held on a chip, and binding of the other changes the refractive index at the surface.
Assay [16] deals with human CD40-Fc protein (amino acid residue 21-193 of SEQ ID NO: 67 linked to N-terminus of amino acid residue 99-330 of SEQ ID NO.: 24) (human). Nature of the assay: capture ELISA; antibody captured, biotin-labeled human CD40-Fc in solution. This is another data set of the same source.
For assay [17], the target named is Human CD40-his protein (Acro biosystems, Cat # CD0-H5228) (human) (UniProt P25942). Nature of the assay: SPR, Biacore T200; antibody captured, antigen flowed; 1:1 Langmuir fit.
For assay [18] the target is unchanged. Nature of the assay: SPR, Biacore; human CD40-his.
Assay [19] addresses human CD40-Fc protein (amino acid residue 21-193 of SEQ ID NO: 67 linked to N-terminus of amino acid residue 99-330 of SEQ ID NO.: 24) (human). Description: capture ELISA (antibody captured on coated anti-IgG F(ab')2, biotin-labeled human CD40-Fc in solution, streptavidin-HRP, OD(450-630)).
The target of assay [20] is full length human CD40 (uniprot # P25942-1) on the membrane of 293T-CD40 cells (human) (UniProt P25942). Nature of the assay: flow cytometry on 293T-CD40 cells. This is another data set of the same source.
Assay [21] has as its target cynomolgus monkey CD40-his protein (Acro biosystems, Cat # CD0-052H6) (cynomolgus monkey) (UniProt G7PG38). Description: SPR, Biacore; cynomolgus CD40-his.
The target of assay [22] is human CD40-Fc protein (amino acid residue 21-193 of SEQ ID NO: 67 linked to N-terminus of amino acid residue 99-330 of SEQ ID NO.: 24) (human). Description: ligand blocking ELISA: human CD40-Fc coated, antibody titrated, then biotin-labeled human CD40L-his (blocked ligand), streptavidin-HRP, OD(450-630).
Assay [23] shares this target. Description: capture ELISA; antibody captured, biotin-labeled human CD40-Fc in solution. The source holds these as a separate data set.
Assay [24] deals with full length human CD40 (uniprot # P25942-1) on the membrane of 293T-CD40 cells (human) (UniProt P25942). Nature of the assay: flow cytometry on 293T-CD40 cells, PE-labeled secondary antibody, MFI. This is another data set of the same source.
Assay [25] concerns the target human CD40-Fc protein (amino acid residue 21-193 of SEQ ID NO: 67 linked to N-terminus of amino acid residue 99-330 of SEQ ID NO.: 24) (human). Nature of the assay: capture ELISA; antibody captured, biotin-labeled human CD40-Fc in solution. The source holds these as a separate data set.
Assay [26] has the same target. Nature of the assay: capture ELISA (antibody captured on coated anti-IgG F(ab')2, biotin-labeled human CD40-Fc in solution, streptavidin-HRP, OD(450-630)). This is another data set of the same source.

full length human CD40 (uniprot # P25942-1) on the membrane of 293T-CD40 cells (human), sequence (P25942 21-277 limits assumed): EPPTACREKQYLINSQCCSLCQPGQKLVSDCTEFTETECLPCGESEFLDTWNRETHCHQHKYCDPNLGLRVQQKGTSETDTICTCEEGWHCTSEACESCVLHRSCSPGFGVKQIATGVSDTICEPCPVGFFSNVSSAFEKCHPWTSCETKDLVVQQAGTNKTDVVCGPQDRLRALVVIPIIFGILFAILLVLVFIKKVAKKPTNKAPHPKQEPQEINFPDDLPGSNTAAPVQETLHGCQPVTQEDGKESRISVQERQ
BM2 (Selicrelumab, Abgenix) (antibody), sequence (VH): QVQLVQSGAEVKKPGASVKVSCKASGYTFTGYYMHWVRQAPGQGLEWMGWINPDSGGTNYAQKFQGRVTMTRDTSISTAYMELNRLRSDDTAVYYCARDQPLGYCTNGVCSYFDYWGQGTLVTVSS
BM2 (Selicrelumab, Abgenix) (antibody), sequence (VL): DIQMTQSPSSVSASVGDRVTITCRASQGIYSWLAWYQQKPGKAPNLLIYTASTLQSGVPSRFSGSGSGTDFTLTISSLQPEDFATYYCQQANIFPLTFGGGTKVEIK
human CD40-Fc protein (amino acid residue 21-193 of SEQ ID NO: 67 linked to N-terminus of amino acid residue 99-330 of SEQ ID NO.: 24) (human), sequence (chain, as listed by the source): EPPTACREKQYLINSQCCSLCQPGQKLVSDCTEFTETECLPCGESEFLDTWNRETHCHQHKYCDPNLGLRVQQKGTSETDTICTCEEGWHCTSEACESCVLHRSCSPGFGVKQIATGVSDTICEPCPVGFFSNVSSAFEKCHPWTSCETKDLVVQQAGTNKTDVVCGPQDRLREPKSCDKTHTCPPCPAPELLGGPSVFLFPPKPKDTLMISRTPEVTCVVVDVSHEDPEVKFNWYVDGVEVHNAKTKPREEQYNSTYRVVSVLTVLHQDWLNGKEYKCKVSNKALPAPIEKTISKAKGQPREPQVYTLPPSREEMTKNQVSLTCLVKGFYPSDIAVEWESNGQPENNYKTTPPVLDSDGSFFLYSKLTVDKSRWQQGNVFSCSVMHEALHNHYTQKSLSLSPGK
BM1 (Dacetuzumab, Genentech Inc) (antibody), sequence (VH): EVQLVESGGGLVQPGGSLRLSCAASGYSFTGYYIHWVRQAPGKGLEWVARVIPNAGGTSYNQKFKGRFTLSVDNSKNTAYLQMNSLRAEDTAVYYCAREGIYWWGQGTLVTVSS
BM1 (Dacetuzumab, Genentech Inc) (antibody), sequence (VL): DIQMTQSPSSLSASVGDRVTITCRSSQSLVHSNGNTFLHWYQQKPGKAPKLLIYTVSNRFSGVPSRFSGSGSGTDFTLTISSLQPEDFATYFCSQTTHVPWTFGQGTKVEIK
Human CD40-his protein (Acro biosystems, Cat # CD0-H5228) (human), sequence (P25942 21-193 limits assumed): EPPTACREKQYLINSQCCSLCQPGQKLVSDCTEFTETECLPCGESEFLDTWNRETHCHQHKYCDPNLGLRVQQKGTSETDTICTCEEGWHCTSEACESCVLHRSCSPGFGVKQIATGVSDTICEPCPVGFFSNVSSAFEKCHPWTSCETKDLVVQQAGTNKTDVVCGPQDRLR
cynomolgus monkey CD40-his protein (Acro biosystems, Cat # CD0-052H6) (cynomolgus monkey), sequence (G7PG38 entry or part of it limits assumed): as the sequence (P25942 21-193 limits assumed) above, with G43S, H56R, R70Q, W89L, A95S, L101P, S106L, H142R, L172Q counted along it

For “Mouse IgG-NC (mouse control Ab) (antibody)”, the absorbance at 450 nm in assay [1] is 0.099 OD450; in assay [2], 0.05 OD450; in [3] it was 0.109 OD450; in [4], 0.044 OD450; in assay [5], 0.125 OD450; in assay [6] it was 0.096 OD450. The absorbance at 450 nm in [7] turned out to be 0.087 OD450; in assay [8], 0.047 OD450.

The EC50 (read off the curve) is the concentration that produces a half-maximal response. What is called EC50 is the concentration giving half of the maximal effect. As usually defined, the pEC50 is the negative decadic logarithm of the EC50, by convention in mol/L. A word on the pKd: it is the Kd on a negative log10 scale, so that one unit is a factor of ten. Turning to “BM1 (Dacetuzumab, Genentech Inc) (antibody)”, the absorbance at 450 nm stood at 0.077 OD450 in assay [1]; 1.83 OD450 in [2]; 0.291 OD450 in [3]; 1.99 OD450 in assay [4]; 0.028 OD450 in assay [5]; 0.036 OD450 in assay [6]. For the same substance, the figures for the absorbance at 450 nm in [7] and in assay [8] were 1.02 OD450 and 1.87 OD450, respectively. For the same substance, the EC50 (read off the curve) in assay [9] amounted to 0.2 µg/mL; in [12], 1 nM; in assay [13], 0.05 µg/mL; in assay [19], 0.4 nM; in assay [24] it was 0.8 nM. In addition, the EC50 in assay [10] is 0.000501 µg/mL. In assay [11], the Cell-based Reporter assay (EC50, nM) is 4.39 nM and 4.81 nM. In addition, the cell based functional assay (EC50, nM) in assay [11] was determined as 4.16 nM. In addition, the pEC50 in assay [14] is 9.01 and 9.05; in assay [16], 9.36; in assay [20], 8.89; in [23] it was 9.47; in assay [25] it was 9.48. Also, the negative-log Kd (pKd) is 7.58 in assay [15], 7.95 in [17], 7.85 in [18] and 8.23 in assay [21]. The substance further gave an IC50 (read off the curve) in [22] of 1 µg/mL.

Consider BM2 (Selicrelumab, Abgenix) (antibody), for which the absorbance at 450 nm in assay [1] stood at 0.052 OD450; in assay [2], 1.42 OD450; in assay [3] it was 0.178 OD450; in assay [4] it was 1.85 OD450; in assay [5], 0.029 OD450; in assay [6] it was 0.028 OD450. Moreover, the absorbance at 450 nm in assay [7] came out at 0.669 OD450; in assay [8] it was 1.63 OD450. In addition, the 50% effective concentration (EC50 (read off the curve)) was 0.3 µg/mL in assay [9], 0.1 µg/mL in assay [13], 0.1 µg/mL in [26] and 1 nM in assay [19]. This substance also came in with a concentration for a half-maximal effect (EC50) in assay [10] of 0.000886 µg/mL. Also, the Cell-based Reporter assay (EC50, nM) in assay [11] was 7.01 nM and 4.9 nM. The cell based functional assay (EC50, nM) in assay [11] was determined as 2.89 nM. Moreover, the pEC50 in [14] was 8.70 and 8.07; in assay [16], 8.90; in assay [20] it was 8.68; in assay [23] it was 9.15; in assay [25] it was 9.14. The negative-log Kd (pKd) in [15] was 7.81; in assay [17], 8.29; in [18], 7.91; in assay [21], 8.22.

For the substance “hIgG (human immunoglobulin (pH4), for intravenous injection, Hualan Biological Engineering Inc.) (antibody)”, the absorbance at 450 nm in assay [1] came out at 0.025 OD450; in assay [2], 0.019 OD450; in [3] it was 0.03 OD450; in assay [4] it was 0.023 OD450; in assay [5] it was 0.026 OD450; in [6], 0.026 OD450. Further, the absorbance at 450 nm in assay [7] was 0.027 OD450; in assay [8], 0.018 OD450.
